Measured values from paper PMC5372246, “Co-production of hydrogen and ethanol from glucose in Escherichia coli by activation of pentose-phosphate pathway through deletion of phosphoglucose isomerase (pgi) and overexpression of glucose-6-phosphate dehydrogenase (zwf) and 6-phosphogluconate dehydrogenase (gnd)” (Biotechnology for Biofuels, 2017).

Substrate: NC(=O)c1ccc[n+]([C@@H]2O[C@H](COP(=O)(O)OP(=O)(O)OC[C@H]3O[C@@H](n4cnc5c(N)ncnc54)[C@H](OP(=O)(O)O)[C@@H]3O)[C@@H](O)[C@H]2O)c1
Assay: purified protein
Assay type: biochemical, Escherichia coli
Settings: co-substrate 6-phosphogluconate, general assay: Tris-HCl pH 7.5, 1 mM MgCl2, 30 °C

B1: Gnd (GE), 6-phosphogluconate dehydrogenase (Escherichia coli K-12) (protein)
chain: MSKQQIGVVGMAVMGRNLALNIESRGYTVSIFNRSREKTEEVIAENPGKKLVPYYTVKEFVESLETPRRILLMVKAGAGTDAAIDSLKPYLDKGDIIIDGGNTFFQDTIRRNRELSAEGFNFIGTGVSGGEEGALKGPSIMPGGQKEAYELVAPILTKIAAVAEDGEPCVTYIGADGAGHYVKMVHNGIEYGDMQLIAEAYSLLKGGLNLTNEELAQTFTEWNNGELSSYLIDITKDIFTKKDEDGNYLVDVILDEAANKGTGKWTSQSALDLGEPLSLITESVFARYISSLKDQRVAASKVLSGPQAQPAGDKAEFIEKVRRALYLGKIVSYAQGFSQLRAASEEYNWDLNYGEIAKIFRAGCIIRAQFLQKITDAYAENPQIANLLLAPYFKQIADDYQQALRDVVAYAVQNGIPVPTFSAAVAYYDSYRAAVLPANLIQAQRDYFGAHTYKRIDKEGVFHTEWLD
notes: full-length, C-terminal His-tag, Ni-NTA purified from E. coli, 51 kDa on SDS-PAGE
Km: 40 µM
